Biological target: the molecule itself
Test: cryo-EM structure

B1: S. aureus TarL H300N (enzyme, UniProt Q2G1B8 1-562, looked up)
chain: MVKSKIYIDKIYWERVQLFVEGHSENLDLEDSNFVLRNLTETRTMKANDVKIDGNQFVCRFNVAILDNGYYLPEDKYLLVNEQELDYIAQLNPDVINDAYQNLKPEQEEEYNELETQNGKINFLLQTYLKEFRKGGISKKTVYTVTPEISSDVNEFVLDVVVTTPEVKSIYIVRKYKELRKYFRKQSFNTRQFIFKAIFNTTKFFHLKKGNTVLFTSDSRPTMSGNFEYIYNEMLRQNLDKKYDIHTVFKANITDRRGIIDKFRLPYLLGKADYIFVDDFHPLIYTVRFRRSQEVIQVWNAVGAFKTVGFSRTGKKGGPFIDSLNHRSYTKAYVSSETDIPFYAEAFGIKEKNVVPTGVPRTDVLFDEAYATQIKQEMEDELPIIKGKKVILFAPTFRGSGHGTAHYPFFKIDFERLARYCEKNNAVVLFKMHPFVKNRLNIADKHKQYFVDVSDFREVNDILFITDLLISDYSSLIYEYAVFKKPMIFYAFDLEDYITTRDFYEPYESFVPGKIVQSFDALMDALDNEDYEGEKVIPFLDKHFKYQDGRSSERLVRNLFGS
  stoichiometry N: 4

Source: PMC10901376 (Science Advances, 2024)
